# Experimental data as given in IntAct's records for PubMed 23700447.
# B1: Membrane protein (Human SARS coronavirus), P59596 (parent)
# chain: MADNGTITVEELKQLLEQWNLVIGFLFLAWIMLLQFAYSNRNRFLYIIKLVFLWLLWPVTLACFVLAAVYRINWVTGGIAIAMACIVGLMWLSYFVASFRLFARTRSMWSFNPETNILLNVPLRGTIVTRPLMESELVIGAVIIRGHLRMAGHSLGRCDIKDLPKEITVATSRTLSYYKLGASQRVGTDSGFAAYNRYRIGNYKLNTDHAGSNDNIALLVQ
# Variants of: B1
# Conditions: with ncap_sars N
row,Variant,effect of a mutation on the interaction
1,L218A;L219A,with no effect
